Read-outs that look alike come from different tables or passages of the source.
T1: Human IL-1Rrp2/IL-1R6 protein, His Tag (ACROBiosystems, IL2-H52H6) (human, UniProt Q9HB29 20-335)
T1 construct: Bought protein; the soluble protein is likely only the extracellular part; also called hIL-36R; human IL36R antigen; not shown: His tag
T1 sequence: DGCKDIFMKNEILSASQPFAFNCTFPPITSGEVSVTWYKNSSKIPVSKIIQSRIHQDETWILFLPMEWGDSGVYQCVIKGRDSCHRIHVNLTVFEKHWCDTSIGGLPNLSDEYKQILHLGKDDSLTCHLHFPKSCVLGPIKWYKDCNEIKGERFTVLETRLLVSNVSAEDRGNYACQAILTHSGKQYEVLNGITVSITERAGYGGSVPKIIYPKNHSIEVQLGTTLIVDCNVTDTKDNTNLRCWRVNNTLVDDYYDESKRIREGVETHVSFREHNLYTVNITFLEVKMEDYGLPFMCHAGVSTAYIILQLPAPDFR

T2: IL-36R naturally expressed on OVCAR8 cells and on normal human epidermal keratinocytes (NHK cells) (human, UniProt Q9HB29 20-575)
T2 sequence (looked up): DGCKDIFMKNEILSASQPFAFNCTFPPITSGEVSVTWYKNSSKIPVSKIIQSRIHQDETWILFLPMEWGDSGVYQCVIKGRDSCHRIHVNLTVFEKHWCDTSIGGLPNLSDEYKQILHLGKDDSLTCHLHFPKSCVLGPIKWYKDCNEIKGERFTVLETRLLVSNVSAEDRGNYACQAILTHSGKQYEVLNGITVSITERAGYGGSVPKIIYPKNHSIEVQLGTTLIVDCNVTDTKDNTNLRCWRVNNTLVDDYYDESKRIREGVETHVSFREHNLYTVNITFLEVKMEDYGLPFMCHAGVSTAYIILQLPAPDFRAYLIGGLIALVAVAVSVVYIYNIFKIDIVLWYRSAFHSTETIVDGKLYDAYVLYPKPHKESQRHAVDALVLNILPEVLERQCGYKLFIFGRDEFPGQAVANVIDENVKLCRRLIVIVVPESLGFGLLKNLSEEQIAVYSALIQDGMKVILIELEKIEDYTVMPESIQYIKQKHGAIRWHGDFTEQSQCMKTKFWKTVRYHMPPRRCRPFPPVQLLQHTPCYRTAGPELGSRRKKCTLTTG

T3: human IL-36R overexpressed on 293T-hIL36R-NFκB cells (human, UniProt Q9HB29 20-575)
T3 sequence: T2 sequence (looked up)

T4: cynomolgus IL-36R overexpressed on 293T-CynoIL36R-NFκB cells (cynomolgus monkey)
T4 chain: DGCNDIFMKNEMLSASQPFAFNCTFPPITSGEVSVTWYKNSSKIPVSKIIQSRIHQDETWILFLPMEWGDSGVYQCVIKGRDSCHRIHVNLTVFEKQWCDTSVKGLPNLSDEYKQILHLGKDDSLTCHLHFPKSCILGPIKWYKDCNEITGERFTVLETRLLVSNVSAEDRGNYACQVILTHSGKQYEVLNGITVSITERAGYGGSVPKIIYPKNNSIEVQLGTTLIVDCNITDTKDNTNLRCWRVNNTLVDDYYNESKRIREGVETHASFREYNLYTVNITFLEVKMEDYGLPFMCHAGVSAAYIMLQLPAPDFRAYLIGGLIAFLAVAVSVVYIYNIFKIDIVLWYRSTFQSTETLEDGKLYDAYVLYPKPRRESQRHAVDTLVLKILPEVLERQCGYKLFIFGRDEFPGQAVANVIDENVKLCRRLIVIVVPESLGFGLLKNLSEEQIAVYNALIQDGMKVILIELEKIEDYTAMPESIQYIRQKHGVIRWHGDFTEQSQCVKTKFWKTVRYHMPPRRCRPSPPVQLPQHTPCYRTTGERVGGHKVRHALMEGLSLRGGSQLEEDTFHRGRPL

B1: BI655130 (antibody, human IgG1, kappa, L234A L235A)
heavy: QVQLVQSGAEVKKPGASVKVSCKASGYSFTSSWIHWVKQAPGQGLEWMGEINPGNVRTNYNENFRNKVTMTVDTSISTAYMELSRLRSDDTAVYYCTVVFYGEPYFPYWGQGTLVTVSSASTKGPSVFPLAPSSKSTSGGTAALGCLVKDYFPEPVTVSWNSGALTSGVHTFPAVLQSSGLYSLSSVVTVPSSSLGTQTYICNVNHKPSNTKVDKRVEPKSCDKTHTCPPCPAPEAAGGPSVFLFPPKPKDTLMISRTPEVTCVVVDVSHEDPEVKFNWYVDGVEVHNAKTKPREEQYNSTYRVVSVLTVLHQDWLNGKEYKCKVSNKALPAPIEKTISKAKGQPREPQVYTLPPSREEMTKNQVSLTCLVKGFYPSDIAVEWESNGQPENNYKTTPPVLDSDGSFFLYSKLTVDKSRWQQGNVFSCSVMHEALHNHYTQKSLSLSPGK
light: QIVLTQSPGTLSLSPGERATMTCTASSSVSSSYFHWYQQKPGQAPRLWIYRTSRLASGVPDRFSGSGSGTDFTLTISRLEPEDAATYYCHQFHRSPLTFGAGTKLEIKRTVAAPSVFIFPPSDEQLKSGTASVVCLLNNFYPREAKVQWKVDNALQSGNSQESVTEQDSKDSTYSLSSTLTLSKADYEKHKVYACEVTHQGLSSPVTKSFNRGEC
notes: also called Spesolimab
B2: chimeric 72C1 antibody (antibody, human IgG4 S228P, kappa)
heavy: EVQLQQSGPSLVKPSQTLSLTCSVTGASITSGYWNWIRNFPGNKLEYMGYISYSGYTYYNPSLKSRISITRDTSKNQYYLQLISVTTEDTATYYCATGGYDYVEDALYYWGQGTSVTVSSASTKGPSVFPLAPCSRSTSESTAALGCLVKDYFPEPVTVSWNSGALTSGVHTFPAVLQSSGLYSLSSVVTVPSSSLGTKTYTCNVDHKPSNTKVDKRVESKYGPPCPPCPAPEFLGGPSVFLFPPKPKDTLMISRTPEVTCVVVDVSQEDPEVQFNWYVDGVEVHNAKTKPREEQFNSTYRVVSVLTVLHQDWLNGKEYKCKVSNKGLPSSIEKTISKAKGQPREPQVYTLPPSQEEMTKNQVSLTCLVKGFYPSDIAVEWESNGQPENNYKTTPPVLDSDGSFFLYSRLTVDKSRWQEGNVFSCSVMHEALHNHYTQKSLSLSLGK
light: EILLTQSPAIMSATLGEKVTMSCRASSNVRYMYWYQLKSGASPKLWIYLTSNLASGVPARFSGSGSGTSYSLTISSVEAEDAATYFCQQFTTSPYTFGGGTKLEIKRTVAAPSVFIFPPSDEQLKSGTASVVCLLNNFYPREAKVQWKVDNALQSGNSQESVTEQDSKDSTYSLSSTLTLSKADYEKHKVYACEVTHQGLSSPVTKSFNRGEC
notes: Mouse variable regions on human IgG4 / kappa; also called xi72C1
B3: chimeric 84C4 antibody (antibody, human IgG4 S228P, kappa)
heavy: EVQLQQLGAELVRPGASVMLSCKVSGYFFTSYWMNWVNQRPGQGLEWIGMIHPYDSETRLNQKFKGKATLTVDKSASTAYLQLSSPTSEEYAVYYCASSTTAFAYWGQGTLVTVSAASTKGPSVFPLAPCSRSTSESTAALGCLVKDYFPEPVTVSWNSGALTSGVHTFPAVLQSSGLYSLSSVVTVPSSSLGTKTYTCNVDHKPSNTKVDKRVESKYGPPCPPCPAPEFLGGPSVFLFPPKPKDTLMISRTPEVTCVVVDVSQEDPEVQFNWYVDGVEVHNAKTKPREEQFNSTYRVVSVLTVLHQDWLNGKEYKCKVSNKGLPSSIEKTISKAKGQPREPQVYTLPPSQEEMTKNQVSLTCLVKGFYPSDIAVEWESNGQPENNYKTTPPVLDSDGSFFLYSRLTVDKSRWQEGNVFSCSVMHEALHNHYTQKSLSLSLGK
light: DILMTQSPSSLSASLGERVSLTCRASQDIGNALNWLQQAPDGTIKRLIYATSSLDPGVPKRFSGSRSGSDYSLTISSLASEDFVYYYCLQYASSPYTFGGGTKLEIKRTVAAPSVFIFPPSDEQLKSGTASVVCLLNNFYPREAKVQWKVDNALQSGNSQESVTEQDSKDSTYSLSSTLTLSKADYEKHKVYACEVTHQGLSSPVTKSFNRGEC
notes: Mouse variable regions on human IgG4 / kappa; also called xi84C4

Experiments:
[1] = biological target: T1, Human IL-1Rrp2/IL-1R6 protein, His Tag …; test: BLI (ForteBio Octet), antibody on ProA sensor, 1:1 model
Experimental: (§1) The affinity of anti-IL-36R antibodies to CynoIL36R-ECD mFc and human IL-1Rrp2/IL-IR6 protein, His Tag (ACROBiosystems, IL2-H52H6) was measured by a ForteBio molecular interaction instrument. […] And then the biosensor was used to bind CynoIL36R-ECD mFc or human IL-1Rrp2/IL-1R6 protein, His Tag which was diluted by a gradient (the initial concentration was 200 nM, 2-fold gradient dilution), the response signals were detected in real time using a Fortebio molecular interaction instrument (SARTORIUS, octet red 96e), and association and dissociation curves were obtained. After the completion of dissociation in each cycle, the biosensor was regenerated for the next capture; the procedure was repeated until the affinity of the different anti-IL-36R antibodies for IL-36R was determined. The resulting data were analyzed by Fortebio Data Analysis 11.0 software in a 1:1 (Langmuir) binding model to determine kₐ (kₒₙ) and kd (koff) values, and the dissociation constant KD was calculated by KD=kd/kₐ. The detection method essentially followed the manufacturer's recommendations, and more information could be found at www.fortebio.com.

[2] = biological target: T2, IL-36R naturally expressed on OVCAR8 …; test: cell-based or functional assay
[3] = biological target: T3, human IL-36R overexpressed on …; test: cell-based or functional assay
[4] = biological target: T3, human IL-36R overexpressed on …; test: cell-based or functional assay; remark: listed apart in the source
[5] = biological target: T4, cynomolgus IL-36R overexpressed on …; test: cell-based or functional assay
[6] = biological target: T2, IL-36R naturally expressed on OVCAR8 …; test: cell-based or functional assay; remark: listed apart in the source
[7] = biological target: T1, Human IL-1Rrp2/IL-1R6 protein, His Tag …; test: BLI (ForteBio Octet), antibody on ProA sensor, 1:1 model; remark: listed apart in the source
Experimental: as §1

[8] = biological target: T4, cynomolgus IL-36R overexpressed on …; test: cell-based or functional assay
[9] = biological target: T2, IL-36R naturally expressed on OVCAR8 …; test: cell-based or functional assay; remark: listed apart in the source
[10] = biological target: T3, human IL-36R overexpressed on …; test: cell-based or functional assay; remark: listed apart in the source
[11] = biological target: T3, human IL-36R overexpressed on …; test: cell-based or functional assay; remark: listed apart in the source

| Binder | Kd [1] | koff [1] | kon [1] | IC50; IL-8 production of OVCAR8 cells stimulated with hIL36β, inhibition rate % [2] | IC50; NFκB-luciferase reporter in 293T-hIL36R-NFκB cells stimulated with hIL36β, inhibition rate % [3] | IC50; NFκB-luciferase reporter in 293T-hIL36R-NFκB cells stimulated with hIL36β, inhibition rate % [4] | IC50; NFκB-luciferase reporter in 293T-CynoIL36R-NFκB cells stimulated with hIL36β, inhibition rate % [5] | IC50; IL-8 production of NHK cells stimulated with hIL36α, inhibition rate % [6] | Kd [7] | koff [7] | kon [7] | IC50; NFκB-luciferase reporter in 293T-CynoIL36R-NFκB cells stimulated with hIL36α, inhibition rate % [8] | IC50; IL-8 production of OVCAR8 cells stimulated with hIL36α, inhibition rate % [9] | IC50; NFκB-luciferase reporter in 293T-hIL36R-NFκB cells stimulated with hIL36α, inhibition rate % [10] | IC50; NFκB-luciferase reporter in 293T-hIL36R-NFκB cells stimulated with hIL36γ, inhibition rate % [11] |
| --- | --- | --- | --- | --- | --- | --- | --- | --- | --- | --- | --- | --- | --- | --- | --- |
| B1 | 0.245 nM | 1.57e-05 s⁻¹ | 64100 M⁻¹ s⁻¹ | 0.0861 nM | 5.02 nM | 2.45 nM | 56.3 nM | 0.214 nM | 0.22 nM | 1.29e-05 s⁻¹ | 58600 M⁻¹ s⁻¹ | 27.7 nM | 0.0799 nM | 3.62 nM | ~13.2 nM |
| B2 | 0.736 nM | 4.38e-05 s⁻¹ | 59600 M⁻¹ s⁻¹ |  | 7.51 nM |  | 3.6 nM |  |  |  |  | 3.32 nM | 0.113 nM | 8 nM |  |
| B3 |  |  |  | 0.113 nM |  | 2.79 nM |  | 1.02 nM | 0.66 nM | 7e-05 s⁻¹ | 106000 M⁻¹ s⁻¹ |  |  |  | ~13.2 nM |

Source: patent publication US20240270857A1 (CHIA TAI TIANQING PHARMACEUTICAL GROUP, published 2024)
